Measured values as given in US20120321619A1 (Bayer, published 2012).
Numbering of substitutions follows the chain as printed.

B1: wild-type Fab M31-B01 (Fab, V domains shown)
VH: EVQLLESGGGLVQPGGSLRLSCAASGFTFSNAWMSWVRQAPGKGLEWVSYISSSGSTIYYADSVKGRFTISRDNSKNTLYLQMNSLRAEDTAVYYCAREGLWAFDYWGQGTLVTVTS
VL: QSVLTQPPSASGTPGQRVTISCTGSSSNIGAGYVVHWYQQLPGTAPKLLIYDNNKRPSGVPDRFSGSKSGTSASLAISGLRSEDEADYYCAAWDDRLNGPVFGGGTKLTVLG
notes: Fab with 3×HA-tag and hexa-histidine tag at the C-terminus of the heavy chain, E. coli culture supernatant; also called M31-B01 (parental Fab)
B2: M31-B01 Fab HC A32Y (Fab, V domains shown)
VH: B1 VH with A32Y
VL: B1 VL
notes: Fab with 3×HA-tag and hexa-histidine tag at the C-terminus of the heavy chain, culture supernatant
B3: M31-B01 Fab HC I57T (Fab, V domains shown)
VH: B1 VH with I58T
VL: B1 VL
notes: as for B2
B4: M31-B01 Fab HC N31S (Fab, V domains shown)
VH: B1 VH with N31S
VL: B1 VL
notes: as for B2
B5: M31-B01 Fab HC T56S (Fab, V domains shown)
VH: B1 VH with T57S
VL: B1 VL
notes: as for B2
B6: M31-B01 Fab HC Y102K (Fab, V domains shown)
VH: B1 VH with Y106K
VL: B1 VL
notes: as for B2
B7: M31-B01 Fab HC Y102W (Fab, V domains shown)
VH: B1 VH with Y106W
VL: B1 VL
notes: as for B2
B8: M31-B01 Fab LC G95bR (Fab, V domains shown)
VH: B1 VH
VL: B1 VL with G99R
notes: as for B2
B9: M31-B01 Fab LC K53Q (Fab, V domains shown)
VH: B1 VH
VL: B1 VL with K55Q
notes: as for B2
B10: M31-B01 Fab LC N95aK (Fab, V domains shown)
VH: B1 VH
VL: B1 VL with N98K
notes: as for B2
B11: M31-B01 Fab LC P96A (Fab, V domains shown)
VH: B1 VH
VL: B1 VL with P100A
notes: as for B2
B12: M31-B01 Fab LC R94M (Fab, V domains shown)
VH: B1 VH
VL: B1 VL with R96M
notes: as for B2
B13: M31-B01 Fab LC T24S (Fab, V domains shown)
VH: B1 VH
VL: B1 VL with T23S
notes: as for B2
B14: M31-B01 Fab LC W91E (Fab, V domains shown)
VH: B1 VH
VL: B1 VL with W93E
notes: as for B2
B15: M31-B01 Fab LC W91F (Fab, V domains shown)
VH: B1 VH
VL: B1 VL with W93F
notes: as for B2
B16: M31-B01 Fab LC W91Y (Fab, V domains shown)
VH: B1 VH
VL: B1 VL with W93Y
notes: as for B2
B17: wild-type Fab M20-D02 S-A (Fab, V domains shown)
VH: EVQLLESGGGLVQPGGSLRLSCAASGFTFSDYQMTWIRQTPGKGLEWVSGVSWNGARTHYADSVKGRFTISRDNSKNTLYLQMNSLRAEDTAVYYCAKGDYLVYSAYYFDSWGQGTLVTVTS
VL: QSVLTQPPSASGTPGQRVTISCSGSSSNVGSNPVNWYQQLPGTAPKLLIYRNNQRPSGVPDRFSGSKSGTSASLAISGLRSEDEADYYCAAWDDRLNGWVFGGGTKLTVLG
notes: Fab with 3×HA-tag and hexa-histidine tag at the C-terminus of the heavy chain, E. coli culture supernatant; also called M20-D02 S-A (parental Fab)
B18: M20-D02 S-A Fab HC A55G (Fab, V domains shown)
VH: B17 VH with A56G
VL: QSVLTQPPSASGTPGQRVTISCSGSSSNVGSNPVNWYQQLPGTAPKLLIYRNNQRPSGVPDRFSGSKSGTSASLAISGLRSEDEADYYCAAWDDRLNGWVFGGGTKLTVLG
notes: as for B2
B19: M20-D02 S-A Fab HC A100bR (Fab, V domains shown)
VH: B17 VH with A106R
VL: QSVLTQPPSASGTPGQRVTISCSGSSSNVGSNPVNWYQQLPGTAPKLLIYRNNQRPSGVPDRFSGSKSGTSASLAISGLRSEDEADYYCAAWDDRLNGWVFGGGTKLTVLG
notes: as for B2
B20: M20-D02 S-A Fab HC A100bS (Fab, V domains shown)
VH: B17 VH with A106S
VL: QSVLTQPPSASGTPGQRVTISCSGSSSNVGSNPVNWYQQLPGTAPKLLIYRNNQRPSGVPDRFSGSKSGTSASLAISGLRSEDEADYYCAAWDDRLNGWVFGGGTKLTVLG
notes: as for B2
B21: M20-D02 S-A Fab HC D101E (Fab, V domains shown)
VH: B17 VH with D110E
VL: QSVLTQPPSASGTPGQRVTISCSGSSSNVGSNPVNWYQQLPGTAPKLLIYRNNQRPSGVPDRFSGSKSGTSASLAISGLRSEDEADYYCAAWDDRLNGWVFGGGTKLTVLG
notes: as for B2
B22: M20-D02 S-A Fab HC D101K (Fab, V domains shown)
VH: B17 VH with D110K
VL: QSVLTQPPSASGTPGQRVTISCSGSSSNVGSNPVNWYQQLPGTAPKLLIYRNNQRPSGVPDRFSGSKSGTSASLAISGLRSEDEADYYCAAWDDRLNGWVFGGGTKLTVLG
notes: as for B2
B23: M20-D02 S-A Fab HC D101R (Fab, V domains shown)
VH: B17 VH with D110R
VL: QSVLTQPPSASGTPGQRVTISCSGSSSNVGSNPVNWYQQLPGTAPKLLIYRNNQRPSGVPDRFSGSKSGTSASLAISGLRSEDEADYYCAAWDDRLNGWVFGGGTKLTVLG
notes: as for B2
B24: M20-D02 S-A Fab HC R56S (Fab, V domains shown)
VH: B17 VH with R57S
VL: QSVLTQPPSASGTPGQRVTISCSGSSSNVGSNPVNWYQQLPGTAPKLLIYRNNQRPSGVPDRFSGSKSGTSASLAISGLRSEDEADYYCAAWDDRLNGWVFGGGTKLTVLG
notes: as for B2
B25: M20-D02 S-A Fab HC S100aK (Fab, V domains shown)
VH: B17 VH with S105K
VL: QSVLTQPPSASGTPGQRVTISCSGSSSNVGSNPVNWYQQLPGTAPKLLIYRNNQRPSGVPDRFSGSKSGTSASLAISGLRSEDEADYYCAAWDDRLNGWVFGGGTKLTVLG
notes: as for B2
B26: M20-D02 S-A Fab HC S100aR (Fab, V domains shown)
VH: B17 VH with S105R
VL: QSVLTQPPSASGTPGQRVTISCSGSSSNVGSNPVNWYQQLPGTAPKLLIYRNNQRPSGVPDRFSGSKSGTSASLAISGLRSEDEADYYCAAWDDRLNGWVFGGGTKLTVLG
notes: as for B2
B27: M20-D02 S-A Fab HC V51I (Fab, V domains shown)
VH: B17 VH with V51I
VL: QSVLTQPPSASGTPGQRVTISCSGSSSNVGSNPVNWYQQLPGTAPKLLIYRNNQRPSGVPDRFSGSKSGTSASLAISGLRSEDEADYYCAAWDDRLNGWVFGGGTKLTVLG
notes: as for B2
B28: M20-D02 S-A Fab LC A90Q (Fab, V domains shown)
VH: B17 VH
VL: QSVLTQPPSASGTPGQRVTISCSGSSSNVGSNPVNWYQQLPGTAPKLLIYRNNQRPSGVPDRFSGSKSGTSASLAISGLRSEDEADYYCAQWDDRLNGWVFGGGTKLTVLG
notes: as for B2
B29: M20-D02 S-A Fab LC A90R (Fab, V domains shown)
VH: B17 VH
VL: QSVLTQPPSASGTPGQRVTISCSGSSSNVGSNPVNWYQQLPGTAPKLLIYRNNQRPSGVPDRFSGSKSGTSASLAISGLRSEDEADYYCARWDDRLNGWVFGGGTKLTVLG
notes: as for B2
B30: M20-D02 S-A Fab LC N95aW (Fab, V domains shown)
VH: B17 VH
VL: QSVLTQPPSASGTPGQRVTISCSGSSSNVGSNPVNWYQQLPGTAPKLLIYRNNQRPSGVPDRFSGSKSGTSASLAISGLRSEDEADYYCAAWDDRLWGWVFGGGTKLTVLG
notes: as for B2

Biological target: T1, recombinant soluble human C4.4a (human, UniProt O95274 31-308)
T1 construct: recombinant, soluble, purified protein; also called hC4.4a; full length C4.4a
T1 sequence: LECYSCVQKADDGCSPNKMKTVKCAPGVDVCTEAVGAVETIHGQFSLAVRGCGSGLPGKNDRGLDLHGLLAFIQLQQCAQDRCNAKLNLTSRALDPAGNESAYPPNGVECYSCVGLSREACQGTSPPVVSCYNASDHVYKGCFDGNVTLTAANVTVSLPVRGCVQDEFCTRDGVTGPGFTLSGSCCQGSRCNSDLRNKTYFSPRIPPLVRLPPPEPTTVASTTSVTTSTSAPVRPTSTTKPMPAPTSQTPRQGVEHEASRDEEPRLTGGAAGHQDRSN
Assay: direct ELISA, Fab supernatant on coated human C4.4a, signal normalized to Fab quantity
Procedure: (§1) Cultures were diluted in 10% Smart Block in PBST and bound to the MTP plates for 1 h at 20° C. After washing with PBST, captured antibodies were incubated with a HRP-coupled anti-lambda antibody (Sigma, A5175) and detected by incubating the plate with 10 μM amplex red substrate (Invitrogen, A12222) for 30 minutes at 20° C. in the dark followed by fluorescence measurement. Determined quantification signals were checked to be in the dynamic range of an calibration series built up with concentrated parental Fab (M31-B01 or M20-D02-S-A) expression culture supernatant allowing a relative quantification of each individual Fab expression sample.
(§2) To determine the activity of the mutated Fab variants on recombinant soluble human or mouse C4.4a a direct ELISA assay format was used. Briefly, MTP plates (Nunc maxisorp black, 460518) were coated with 2 μg/ml either human or mouse C4.4a diluted in coating buffer (Candor Bioscience GmbH, 121125) and incubated for 15 h at 4° C. After washing 3 times with PBST, plates were blocked with 100% Smart Block (Candor Bioscience GmbH, 113500) for 1 h at 20° C. and the washing steps were repeated. For binding of the Fab antibody fragments 20 μl of culturing supernatants were added to the plates for 1 h at 20° C. followed by washing. In some cases the washing stringency was increased by an additional incubation step with 10% Smart Block in PBST for 90 min followed by washing 3 times with PBST (“process B” in Table 10b). Bound parental Fabs and variants were then detected by a HA-epitope tag specific antibody HRP conjugate (Bethyl, A190-108P). 10 μM amplex red substrate (Invitrogen, A12222) was added to the plates and the fluorescence signal was detected using a common fluorescence reader, e.g. Tecan Ultra. Quantity normalized affinity signals were calculated as ratios of background corrected affinity and quantification signals in the respective ELISA: (Signalaffinity−Backgroundaffinity)/(Signalquantity−Backgroundquantity). The resulting values correlate mainly with the affinity in a positive manner, whereas not normalized values correlate additionally with the concentration of the binding Fab in the sample.

Binder | normalized affinity signal (average) | normalized affinity signal (median) | normalized affinity signal (median, process A)
B1 | 1.11 | 1.23 | 
B2 |  | 2.31 | 
B3 |  | 1.5 | 
B4 |  | 1.53 | 
B5 |  | 1.58 | 
B6 | 1.49 |  | 
B7 | 1.65 |  | 
B8 | 2.45 |  | 
B9 |  | 1.12 | 
B10 | 1.11 |  | 
B11 | 0.95 |  | 
B12 | 1.3 |  | 
B13 |  | 0.77 | 
B14 | 3.17 |  | 
B15 | 4.3 |  | 
B16 | 4.97 |  | 
B17 | 0.04 |  | 0.15
B18 |  |  | 0.15
B19 | 0.87 |  | 
B20 | 0.34 |  | 
B21 | 0.31 |  | 
B22 | 1.65 |  | 
B23 | 0.61 |  | 
B24 |  |  | 0.21
B25 | 0.45 |  | 
B26 | 0.43 |  | 
B27 |  |  | 0.52
B28 | 1.41 |  | 
B29 | 0.94 |  | 
B30 | 0.11 |  | 

Biological target: T2, recombinant soluble murine C4.4a (mouse, UniProt Q91YK8 33-343, limits assumed)
T2 construct: also called mouse C4.4a; mC4.4a
T2 sequence (looked up): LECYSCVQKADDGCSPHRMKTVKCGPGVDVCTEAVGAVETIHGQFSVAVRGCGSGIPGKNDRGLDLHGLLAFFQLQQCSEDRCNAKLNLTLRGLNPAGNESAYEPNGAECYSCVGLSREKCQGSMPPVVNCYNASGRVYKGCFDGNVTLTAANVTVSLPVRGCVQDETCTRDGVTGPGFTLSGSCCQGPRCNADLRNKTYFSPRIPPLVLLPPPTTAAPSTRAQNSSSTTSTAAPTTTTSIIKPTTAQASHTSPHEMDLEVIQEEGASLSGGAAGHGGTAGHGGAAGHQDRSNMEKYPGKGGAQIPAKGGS
Assay: direct ELISA, Fab supernatant on coated mouse C4.4a, signal normalized to Fab quantity
Procedure: as §1, §2

Binder | normalized affinity signal (average) | normalized affinity signal (median) | normalized affinity signal (median, process A)
B1 | 0.13 | 0.16 | 
B2 |  | 0.01 | 
B3 |  | 0.73 | 
B4 |  | 0.32 | 
B5 |  | 0.74 | 
B6 | 0.21 |  | 
B7 | 0.13 |  | 
B8 | 1.01 |  | 
B9 |  | 0.35 | 
B10 | 0.12 |  | 
B11 | 0.32 |  | 
B12 | 0.13 |  | 
B13 |  | 0.23 | 
B14 | 0.4 |  | 
B15 | 2.53 |  | 
B16 | 2.79 |  | 
B17 | 0.01 |  | 0.04
B18 |  |  | 0.04
B19 | 0.01 |  | 
B20 | 0.02 |  | 
B21 | 0.05 |  | 
B22 | 0.21 |  | 
B23 | 0.03 |  | 
B24 |  |  | 0.06
B25 | 0.06 |  | 
B26 | 0.02 |  | 
B27 |  |  | 0.16
B28 | 0.29 |  | 
B29 | 0.17 |  | 
